Article PMC8221199
Like-named read-outs stand apart in the source and are kept apart here. Each block holds one substance with its values, some of them ahead of it.

Tests used:
[1] = molecular target: p53 N-terminal peptide (Homo sapiens) (UniProt P04637); conditions: cited from earlier work
[2] = molecular target: p53 N-terminal peptide (Homo sapiens) (UniProt P04637); conditions: cited from earlier work; remark: listed apart in the source
[3] = molecular target: p53 N-terminal peptide (Homo sapiens) (UniProt P04637); conditions: cited from earlier work; remark: listed apart in the source
[4] = molecular target: p53 N-terminal peptide (Homo sapiens) (UniProt P04637); conditions: cited from earlier work; remark: listed apart in the source
[5] = molecular target: acetyltransferase p300 (UniProt Q09472)
acetyltransferase p300, sequence (Q09472 whole entry): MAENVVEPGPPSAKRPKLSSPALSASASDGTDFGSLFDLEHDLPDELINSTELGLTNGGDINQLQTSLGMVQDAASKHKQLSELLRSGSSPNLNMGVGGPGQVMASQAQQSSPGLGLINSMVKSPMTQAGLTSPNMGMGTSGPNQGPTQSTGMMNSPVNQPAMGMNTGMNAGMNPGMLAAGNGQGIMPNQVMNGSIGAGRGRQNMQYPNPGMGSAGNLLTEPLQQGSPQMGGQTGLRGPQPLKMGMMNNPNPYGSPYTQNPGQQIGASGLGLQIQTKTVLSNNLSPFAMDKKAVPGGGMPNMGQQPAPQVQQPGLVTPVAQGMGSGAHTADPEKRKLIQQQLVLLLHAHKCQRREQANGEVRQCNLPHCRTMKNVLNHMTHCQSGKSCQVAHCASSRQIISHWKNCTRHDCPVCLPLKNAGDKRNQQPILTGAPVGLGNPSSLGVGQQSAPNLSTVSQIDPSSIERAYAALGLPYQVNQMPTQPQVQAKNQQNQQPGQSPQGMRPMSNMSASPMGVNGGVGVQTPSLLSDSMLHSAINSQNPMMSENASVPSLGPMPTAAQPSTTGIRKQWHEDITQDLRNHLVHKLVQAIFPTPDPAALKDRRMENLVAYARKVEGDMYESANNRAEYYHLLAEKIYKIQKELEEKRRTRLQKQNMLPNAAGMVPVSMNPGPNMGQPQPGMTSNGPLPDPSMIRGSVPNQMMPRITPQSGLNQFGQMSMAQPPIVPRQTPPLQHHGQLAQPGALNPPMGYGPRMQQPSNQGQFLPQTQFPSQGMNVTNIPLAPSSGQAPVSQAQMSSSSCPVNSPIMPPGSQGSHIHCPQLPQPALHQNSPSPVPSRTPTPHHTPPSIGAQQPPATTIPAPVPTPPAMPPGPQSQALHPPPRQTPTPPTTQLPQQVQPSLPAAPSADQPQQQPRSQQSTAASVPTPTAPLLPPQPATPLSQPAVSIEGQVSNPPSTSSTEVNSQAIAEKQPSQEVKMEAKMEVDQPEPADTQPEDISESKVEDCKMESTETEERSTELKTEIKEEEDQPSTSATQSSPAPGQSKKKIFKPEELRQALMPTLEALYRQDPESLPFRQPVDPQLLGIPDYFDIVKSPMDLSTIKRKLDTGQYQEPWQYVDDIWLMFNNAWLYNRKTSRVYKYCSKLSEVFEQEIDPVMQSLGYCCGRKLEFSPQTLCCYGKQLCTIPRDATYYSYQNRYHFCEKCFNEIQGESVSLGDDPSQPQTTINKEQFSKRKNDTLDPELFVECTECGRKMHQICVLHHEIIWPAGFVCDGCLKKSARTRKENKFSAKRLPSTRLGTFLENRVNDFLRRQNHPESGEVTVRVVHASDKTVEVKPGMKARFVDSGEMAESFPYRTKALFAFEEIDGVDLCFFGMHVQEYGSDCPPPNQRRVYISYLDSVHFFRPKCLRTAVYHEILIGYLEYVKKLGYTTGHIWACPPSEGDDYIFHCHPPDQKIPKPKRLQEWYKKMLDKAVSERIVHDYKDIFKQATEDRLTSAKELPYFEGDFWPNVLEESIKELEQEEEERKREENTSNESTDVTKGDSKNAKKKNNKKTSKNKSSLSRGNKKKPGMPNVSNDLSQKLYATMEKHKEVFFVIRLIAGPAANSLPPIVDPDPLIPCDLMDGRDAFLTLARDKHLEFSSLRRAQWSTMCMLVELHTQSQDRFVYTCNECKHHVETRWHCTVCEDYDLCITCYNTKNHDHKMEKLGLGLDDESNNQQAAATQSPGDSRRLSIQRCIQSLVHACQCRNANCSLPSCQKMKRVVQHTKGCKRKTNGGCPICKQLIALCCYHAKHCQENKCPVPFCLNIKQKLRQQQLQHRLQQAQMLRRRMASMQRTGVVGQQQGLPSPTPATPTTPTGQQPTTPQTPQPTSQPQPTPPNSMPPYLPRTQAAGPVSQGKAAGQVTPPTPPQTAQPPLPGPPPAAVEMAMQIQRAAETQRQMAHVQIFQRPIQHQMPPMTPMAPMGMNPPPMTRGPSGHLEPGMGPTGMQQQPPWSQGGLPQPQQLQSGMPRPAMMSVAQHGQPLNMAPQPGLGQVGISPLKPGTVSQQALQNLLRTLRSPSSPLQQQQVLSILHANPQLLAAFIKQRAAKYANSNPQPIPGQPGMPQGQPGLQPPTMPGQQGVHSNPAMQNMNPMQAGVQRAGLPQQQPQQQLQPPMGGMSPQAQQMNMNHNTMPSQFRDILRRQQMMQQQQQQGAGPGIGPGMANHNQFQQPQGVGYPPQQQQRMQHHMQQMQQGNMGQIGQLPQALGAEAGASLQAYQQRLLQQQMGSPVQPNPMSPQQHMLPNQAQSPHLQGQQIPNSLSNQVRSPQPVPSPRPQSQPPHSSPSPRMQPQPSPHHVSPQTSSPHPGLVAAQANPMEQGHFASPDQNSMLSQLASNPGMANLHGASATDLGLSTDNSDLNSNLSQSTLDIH

p300 Taz1, sequence (Q09472 323-423): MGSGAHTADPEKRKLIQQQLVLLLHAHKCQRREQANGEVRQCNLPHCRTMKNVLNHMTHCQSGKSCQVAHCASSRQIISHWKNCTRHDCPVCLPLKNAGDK
p300 IBiD, sequence (Q09472 2050-2094): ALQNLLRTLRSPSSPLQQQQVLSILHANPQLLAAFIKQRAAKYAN
p300 Kix, sequence (Q09472 563-648): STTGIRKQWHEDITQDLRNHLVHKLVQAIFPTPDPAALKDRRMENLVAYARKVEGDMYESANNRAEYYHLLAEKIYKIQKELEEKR
p300 Taz2, sequence (Q09472 1723-1812): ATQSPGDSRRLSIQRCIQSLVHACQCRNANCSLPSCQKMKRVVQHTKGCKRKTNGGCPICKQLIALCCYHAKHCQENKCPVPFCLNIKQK

Substance: p300 IBiD (from UniProt Q09472)
Kd [1]: 8000 nM

Substance: p300 Kix (from UniProt Q09472)
Kd [2]: 3000 nM

Substance: p300 Taz1 (from UniProt Q09472)
Kd [3]: 1000 nM

Substance: p300 Taz2 (from UniProt Q09472)
Kd [4]: 20 nM

p300-dependent acetylation of p53 (western blot, Lys373ac), relative rate [5]: 2.3 fold
Substance: semi-synthetic full-length p53 with phosphoserine at positions 15 and 20 (from UniProt P04637 1-393) (natural protein)
